Positions count from the first letter of the chain named.
B1: ADI-21057 (antibody, V domains shown)
VH: QVQLVQSGAEVKKPGESLKISCKASGYSLSNNWIAWVRQMPGKGLEWMGIVYLGDSDARYSPSFQGQVTFSADKSISTAYLQWSSLQASDTAMYFCARHHGDLVVTSDSRYFYGLDVWGQGTTVTVSS
VL: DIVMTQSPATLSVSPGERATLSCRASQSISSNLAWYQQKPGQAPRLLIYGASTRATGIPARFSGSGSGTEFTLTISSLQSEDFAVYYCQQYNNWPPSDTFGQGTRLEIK
B2: ADI-21028 (antibody, V domains shown)
VH: EVQLVESGGALVKPGGSLRLSCVASGFTFSDYYMHWVRQAPGKGLEWVSYISSTSSFTNYADSVKGRFIISRDNAKNSLYLQLNSLRAEDTAVYYCARDESSGWQTRRHFGMDVWGQGTLVTVSS
VL: EIVMTQSPSTLSASVGDRVTITCRASQSLNTWLAWYQHKPGKAPKLLISTASSLQSGVPSRFSASGSGTEFTLTISSLQPDDFATYYCQQFRGTFGPGTKVEIK
B3: ADI-21058 (antibody, V domains shown)
VH: QVQLQESGPGLVKPSETLSLTCTVSGGSISGTTYYWAWIRQPPGKGLEWIGTIFYSGSTYYNPSLQSRVTTSVDASKNQMSLRLSSVTAADTAMYYCARHTSIYDNLTGFYSHLTGVLDMWGQGTMVTVSS
VL: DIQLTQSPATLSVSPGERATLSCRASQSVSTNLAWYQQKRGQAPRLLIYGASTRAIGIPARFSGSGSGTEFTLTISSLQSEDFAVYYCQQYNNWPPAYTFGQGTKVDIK
B4: ADI-21018 (antibody, V domains shown)
VH: EVQLLESGGGLVKPGGSLRLSCAGSGFTLSSYGMNWVRQAPGQGLEWISSISSSSSYINYADSVKGRFTISRDNAQNSLYLQLNSLRAEDTAVYYCARGGLGYDYGLGSYTYADYWGQGTLVTVSS
VL: QSVVTQPPSVSGAPGQRVTISCTGSSSNTGAGYDIHWYQQLPGTGPKLLIYGNKNRPSGVPDRFSGSKSGTSASLAITGLQAEDEADYYCQSYDSSLSGWVFGGGTKVTVL
B5: ADI-21049 (antibody, V domains shown)
VH: EVQLVESGGGLVKPGGSLRLSCSASGFAFSSYSMNWVRQAPGKGLEWVSSISASSSYIFYADSVKGRFTISRDNAKNSLYLQMNSLRAEDTAFYYCARALSPGYGDYRDYWGQGTLVTVSS
VL: QSVVTQPPSVSGAPGQRVTISCTGSSSNIGAGYDVHWYQQLPGAAPKLLIYGNNNRPSGVPDRFSGSKSGTSASLAITGLQAEDEADFYCQSYDHNLSVVFGGGTKLTVL
B6: ADI-25503 (antibody, V domains shown)
VH: EVQLLESGAEVKKPGSSVKVSCKASGGTFSSYAISWVRQAPGQGLEWMGGIIPIFGTANYAQKFQGRVTITADESTSTAYMELSSLRSEDTAVYYCARSRYSGSYYYYYGMDVWGQGTTVTVSS
VL: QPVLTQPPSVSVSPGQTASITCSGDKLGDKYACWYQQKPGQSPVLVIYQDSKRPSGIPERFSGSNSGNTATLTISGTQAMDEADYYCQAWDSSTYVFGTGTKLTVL
notes: full-length IgG
B7: ADI-25514 (antibody, V domains shown)
VH: B6 VH with L5V, E6Q
VL: not shown
notes: full-length IgG
B8: ADI-24816 (antibody, V domains shown)
VH: QVQLVQSGAEVKKPGASVKVSCKASGYTFTSYDINWVRQATGQGLEWMGWMNPNSGNTGYAQKFQGRVTMTRNTSISTAYMELSSLRSEDTAVYYCARGIPGYYYYGMDVWGQGTTVTVSS
VL: not shown
notes: full-length IgG
B9: ADI-24824 (antibody, V domains shown)
VH: QVQLQESGPGLVKPSETLSLTCTVSGGSISSYYWSWIRQPPGKGLEWIGYIYYSGSTNYNPSLKSRVTISVDTSKNQFSLKLSSVTAADTAVYYCAISLYGDYRTDAFDIWGQGTTVTVSS
VL: EIVLTQSPSSFSASTGDRVTITCRASQGISSYLAWYQQKPGKAPKLLIYAASTLQSGVPSRFSGSGSGTDFTLTISCLQSEDFATYYCQQYYSYPLFGGGTKVEIK
B10: ADI-19463 (antibody, V domains shown)
VH: QVQLQESGPGLVKPSQTLSLTCTVSGGSISSGDYYWSWIRQPPGKGLEWIGYIYYSGSTYYNPSLKSRVTISVDTSKNQFSLKLSSVTAADTAVYYCARDRLGIFDYWGQGTLVTVSS
VL: not shown
notes: full-length IgG
B11: ADI-24801 (antibody, V domains shown)
VH: QVQLVQSGAEVKKPGASVKVSCKASGYTFTSYGISWVRQAPGQGLEWMGWISAYNGNTNYAQKLQGRVTMTTDTSTSTAYMELRSLRSDDTAVYYCARVTARTFGGIRKGYYYGMDVWGQGTTVTVSS
VL: not shown
notes: full-length IgG; also called Ab 368
B12: ADI-19444 (antibody, V domains shown)
VH: QVQLVQSGAEVKKPGASVKVSCKASGYTFTSYGISWVRQAPGQGLEWMGWISAYNGNTNYAQKLQGRVTMTTDTSTSTAYMELRSLRSDDTAVYYCARDEALVGATFDYWGQGTLVTVSS
VL: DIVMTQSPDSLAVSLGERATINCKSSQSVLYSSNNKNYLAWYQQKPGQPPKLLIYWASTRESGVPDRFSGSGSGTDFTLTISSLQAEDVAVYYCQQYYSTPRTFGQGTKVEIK
notes: full-length IgG
B13: ADI-19441 (antibody, V domains shown)
VH: QVQLVQSGAEVKKPGSSVKVSCKASGGTFSSYAISWVRQAPGQGLEWMGRIIPILGIANYAQKFQGRVTITADKSTSTAYMELSSLRSEDTAVYYCARGPLTGYSSSWFDPWGQGTLVTVSS
VL: EIVMTQSPSSLSASVGDRVTITCRASQSISSYLNWYQQKPGKAPKLLIYAASSLQSGVPSRFSGSGSGTDFTLTISSLQPEDFATYYCQQSYSTLPYTFGQGTKVEIK
notes: full-length IgG
B14: ADI-19468 (antibody, V domains shown)
VH: EVQLVESGPGLVKPSETLSLTCTVSGGSISSSSYYWGWIRQPPGKGLEWIGSIYYSGSTYYNPSLKSRVTISVDTSKNQFSLKLSSVTAADTAVYYCARRDGYNYGWFDPWGQGTLVTVSS
VL: NFMLTQPHSVSESPGKTVTISCTGSSGSIASNYVQWYQQRPGSAPTTVIYEDNQRPSGVPDRFSGSIDSSSNSASLTISGLKTEDEADYYCQSYDSSNVVFGGGTKVTVL
notes: full-length IgG
B15: ADI-19435 (antibody, V domains shown)
VH: QVQLQESGPGLVKPSQTLSLTCTVSGGSISSGSYYWSWIRQPAGKGLEWIGRIYTSGSTNYNPSLKSRVTISVDTSKNQFSLKLSSVTAADTAVYYCAREGRGGAFDIWGQGTLVTVSS
VL: SYELTQPPSVSVSPGQTARITCSADALPKQYAYWYQQKPGQAPVLVIYKDSERPSGIPERFSGSSSGTTVTLTISGVQAEDEADYYCQSADSSGTYVVFGGGTQLTVL
notes: full-length IgG
B16: ADI-19455 (antibody, V domains shown)
VH: EVQLVESGGGLVKPGGSLRLSCAASGFTFSSYSMNWVRQAPGKGLEWVSSISSSSSYIYYADSVKGRFTISRDNAKNSLYLQMNSLRAEDTAVYYCARSQSGSYYSSDYWGQGTLVTVSS
VL: B4 VL with V4L, T29I, I35V, G45A, K54S
notes: full-length IgG
B17: ADI-19429 (antibody, V domains shown)
VH: EVQLQESGPGLVKPSETLSLTCTVSGGSISSSSYYWGWIRQPPGKGLEWIGSIYYSGSTYYNPSLKSRVTISVDTSKNQFSLKLSSVTAADTAVYYCARTPLYSYGRVVGFYYYGMDVWGQGTTVTVSS
VL: B4 VL with V4L, T29I, I35V, G45A, K54S, V108L
B18: ADI-25496 (antibody, V domains shown)
VH: QVQLVQSGGGLVKPGGSLRLSCAASGFTFSSYSMNWVRQAPGKGLEWVSSISSSSSYIYYADSVKGRFTISRDNAKNSLYLQMNSLRAEDTAVYYCARVASEVWFFDLWGRGTLVTVSS
VL: B4 VL with S2P, V4L, T29I, I35V, G45A, K54S, W100Y, G104T, V108L
notes: full-length IgG
B19: ADI-24822 (antibody, V domains shown)
VH: QVQLVESGGGLVKPGGSLRLSCAASGFTFSSYSMNWVRQAPGKGLEWVSSISSSSSYIYYADSVKGRFTISRDNAKNSLYLQMNSLRAEDTAVYYCARDSGLGSRGDAFDIWGQGTMVTVSS
VL: B4 VL with V4L, T29I, I35V, G45A, K54S, W100Y, G104T
notes: full-length IgG
B20: ADI-24813 (antibody, V domains shown)
VH: EVQLLESGGGLVQPGRSLRLSCAASGFTFDDYAMHWVRQAPGKGLEWVSGISWNSGSIGYADSVKGRFTISRDNAKNSLYLQMNSLRAEDTALYYCAKDGDSSSWRDSNFDYWGQGTLVTVSS
VL: B4 VL with V4L, T29I, I35V, G45A, K54S, W100V, V108L
notes: full-length IgG
B21: ADI-25595 (antibody, V domains shown)
VH: B16 VH with S99Y, G102S, Y104W, S106Y, S107F
VL: B4 VL with Q1S, S2Y, V4L, T29I, I35V, G45A, K54S, W100V, V108L
notes: full-length IgG; also called Ab 464
B22: ADI-24830 (antibody, V domains shown)
VH: QVQLVQSGAEVKKPGSSVKVSCKASGGTFSSYAISWVRQAPGQGLEWMGGIIPIFGTANYAQKFQGRVTITADESTSTAYMELSSLRSEDTAVYYCARGGSMVRGLGFDPWGQGTLVTVSS
VL: not shown
notes: full-length IgG
B23: ADI-24837 (antibody, V domains shown)
VH: QVQLQESGPGLVKPSETLSLTCTVSGGSISSYYWSWIRQPPGKGLEWIGYIYYSGSTNYNPSLKSRVTISVDTSKNQFSLKLSSVTAADTAVYYCARAIYYYDSSGYYYVGDAFDIWGQGTTVTVSS
VL: QSVLTQPPSVSAAPGQKVTISCSGSSSNIGNNYVSWYQQLPGTAPKLLIYENNKRPSGIPDRFSGSKSGTSATLGITGLQTGDEADYYCGTWDSSLSAGVFGGGTKLTVL
B24: ADI-24843 (antibody, V domains shown)
VH: EVQLVESGPGLVKPSQTLSLTCTVSGGSISSGDYYWSWIRQPPGKGLEWIGYIYYSGSTYYNPSLKSRVTISVDTSKNQFSLKLSSVTAADTAVYYCARESIVGAVDYWGQGTLVTVSS
VL: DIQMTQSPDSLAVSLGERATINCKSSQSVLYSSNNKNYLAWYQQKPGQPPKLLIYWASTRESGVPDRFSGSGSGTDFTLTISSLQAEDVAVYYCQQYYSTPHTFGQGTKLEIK
notes: full-length IgG; also called Ab 405
B25: ADI-25588 (antibody, V domains shown)
VH: EVQLVESGGGLVKPGGSLRLSCAASGFTFSSYSMNWVRQAPGKGLEWVSSISSSSSYIYYADSVKGRFTISRDNAKNSLYLQMNSLRAEDTAVYYCARYSSSLGAFDIWGQGTTVTVSS
VL: B5 VL with V4L, A44T, N54S, F88Y, H95S, N96S, V99D, G103T, L107V
notes: full-length IgG
B26: ADI-22767 (antibody, V domains shown)
VH: B25 VH with E1Q, Y99E, S100A, S101N, S102W, L103G, G104V, T114M
VL: B5 VL with A44T, N54S, F88Y, H95S, N96S, V99Y, G103T, L107V
notes: full-length IgG

These binders were tested against RSV prefusion F (preF), subtype B (respiratory syncytial virus, subtype B) (assay: BLI, IgG).
In the case of B1, the Kd is reported as 0.86 nM.
Binder B2 has a Kd of 3.33 nM.
For B3, the Kd was 0.515 nM.
Binder B4 has a Kd of 0.366 nM.
With B5 the Kd was 1.27 nM.

The binders below were run against T1, RSV postfusion F (postF), subtype A (respiratory syncytial virus subtype A, UniProt P03420 26-513) (assay: BLI).
T1 construct: also called Postfusion subtype A; F deltaFP
B6: no binding.
B7: no binding.
B8: no binding.
B9: no binding.
B10: no binding.
B11: no binding.
B12: no binding.
B13: no binding.
B14: no binding.
B15: no binding.
B16: no binding.
B17: no binding.
B18: no binding.
B19: no binding.
B20: no binding.
B21: no binding.
B22: no binding.
B23: no binding.
B24: no binding.
B25: no binding.
B26: no binding.

Reference: US20260258115A1 (MAPP BIOPHARMACEUTICAL, published 2026)
